Kd data for 1 molecule are collected here from article PMC11472053, “Structural basis of DNA recognition by BEN domain proteins reveals a role for oligomerization in unmethylated DNA selection by BANP” (Nucleic Acids Research, 2024).

What all share (test): ITC; ITC: 20 mM Tris pH 7.5, 200 mM NaCl, 2 mM beta-mercaptoethanol, 20 C; EMSA: 20 mM Tris pH 7.0, 200 mM NaCl, 2 mM DTT, 4 C, 1.2% agarose in TAE
In general terms: ITC needs no label: the signal is the heat of the interaction.

The target of one series is T1, BANP BEN K314A (human, UniProt Q8N9N5 205-325, K314A).
T1 sequence: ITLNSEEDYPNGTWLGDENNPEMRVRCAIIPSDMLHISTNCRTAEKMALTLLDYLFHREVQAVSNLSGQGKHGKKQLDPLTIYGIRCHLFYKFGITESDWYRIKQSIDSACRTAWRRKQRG
As to conditions: protein: recombinant; tags: His-SUMO or His-MBP, cleaved; chain copies: 2; blunt, self-complementary.

In a further series the target is T2, BANP BEN S310A (human, UniProt Q8N9N5 205-325, S310A).
T2 sequence: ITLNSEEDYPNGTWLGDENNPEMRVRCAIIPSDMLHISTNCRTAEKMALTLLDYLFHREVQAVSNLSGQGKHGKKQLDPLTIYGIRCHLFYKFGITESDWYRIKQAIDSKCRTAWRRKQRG
As to conditions: protein: recombinant; tags: His-SUMO or His-MBP, cleaved; chain copies: 2; blunt, self-complementary.

For another series, the target named is T3, BANP CC-BEN (ΔDBD) (human, UniProt Q8N9N5 1-360).
T3 sequence: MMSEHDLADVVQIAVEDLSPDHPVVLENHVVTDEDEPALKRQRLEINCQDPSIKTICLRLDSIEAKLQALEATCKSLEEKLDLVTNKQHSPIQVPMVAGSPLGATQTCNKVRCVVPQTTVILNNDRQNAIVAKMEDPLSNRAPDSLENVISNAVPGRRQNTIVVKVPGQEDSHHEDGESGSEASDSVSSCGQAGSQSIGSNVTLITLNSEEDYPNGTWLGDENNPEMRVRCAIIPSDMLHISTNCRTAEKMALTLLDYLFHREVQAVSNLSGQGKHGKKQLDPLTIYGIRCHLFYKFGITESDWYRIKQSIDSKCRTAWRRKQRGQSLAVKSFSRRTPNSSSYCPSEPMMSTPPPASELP
As to conditions: protein: recombinant; tags: His-SUMO or His-MBP, cleaved; blunt, self-complementary.

A further series has as its target T4, BANP ΔCC (human, UniProt Q8N9N5 90-519).
T4 sequence: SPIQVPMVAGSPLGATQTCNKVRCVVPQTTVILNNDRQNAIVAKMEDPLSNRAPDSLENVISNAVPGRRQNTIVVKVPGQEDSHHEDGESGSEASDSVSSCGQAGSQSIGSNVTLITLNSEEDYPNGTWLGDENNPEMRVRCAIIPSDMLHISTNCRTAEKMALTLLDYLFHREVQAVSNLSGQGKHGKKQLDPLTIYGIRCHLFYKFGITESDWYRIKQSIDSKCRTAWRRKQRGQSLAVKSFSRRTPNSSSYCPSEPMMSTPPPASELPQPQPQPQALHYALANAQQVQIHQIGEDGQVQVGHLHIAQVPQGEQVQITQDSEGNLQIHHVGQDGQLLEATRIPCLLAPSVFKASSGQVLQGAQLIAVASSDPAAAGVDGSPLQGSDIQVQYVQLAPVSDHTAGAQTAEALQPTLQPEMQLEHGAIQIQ
As to conditions: protein: recombinant; tags: His-SUMO or His-MBP, cleaved; blunt, self-complementary.

For the next series, the target named is T5, GST-BANP BEN (human, UniProt Q8N9N5 205-325).
T5 sequence: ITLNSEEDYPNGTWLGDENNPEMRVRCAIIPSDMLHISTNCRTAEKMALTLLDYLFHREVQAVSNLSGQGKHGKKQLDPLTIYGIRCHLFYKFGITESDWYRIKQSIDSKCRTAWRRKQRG
As to conditions: protein: recombinant; tags: N-terminal GST fusion; chain copies: 2; blunt, self-complementary.

A further series deals with T6, BANP BEN S313A (human, UniProt Q8N9N5 205-325, S313A).
T6 sequence: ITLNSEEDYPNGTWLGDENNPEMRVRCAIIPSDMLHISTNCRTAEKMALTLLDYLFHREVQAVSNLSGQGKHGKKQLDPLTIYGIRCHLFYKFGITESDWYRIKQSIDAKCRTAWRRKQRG
The following applies: protein: recombinant; tags: His-SUMO or His-MBP, cleaved; chain copies: 2; blunt, self-complementary.

The target in another series is T7, BANP BEN-DBD (human, UniProt Q8N9N5 205-519).
T7 sequence: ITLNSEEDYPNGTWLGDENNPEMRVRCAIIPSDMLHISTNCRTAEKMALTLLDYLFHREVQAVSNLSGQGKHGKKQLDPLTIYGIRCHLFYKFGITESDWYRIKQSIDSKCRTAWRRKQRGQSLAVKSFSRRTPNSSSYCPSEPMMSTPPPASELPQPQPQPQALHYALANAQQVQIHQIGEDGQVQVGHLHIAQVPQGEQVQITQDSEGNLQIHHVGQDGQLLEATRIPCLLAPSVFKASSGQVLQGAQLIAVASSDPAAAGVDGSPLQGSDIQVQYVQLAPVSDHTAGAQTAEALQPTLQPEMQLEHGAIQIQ
As to conditions: protein: recombinant; tags: His-SUMO or His-MBP, cleaved; blunt, self-complementary.

The term Kd denotes the constant that tells how readily two partners part at equilibrium.

B1: 12-CGCG (dsDNA)
DNA 1: ATCTCGCGAGAT
DNA 2: ATCTCGCGAGAT
In the case of B1, the Kd with BANP BEN K314A came to 25.2 ± 3.8 µM; with BANP BEN S310A it was 12.8 ± 0.9 µM; with BANP CC-BEN (ΔDBD) it was 2.9 ± 0.7 µM; in the series with BANP ΔCC, 3.4 ± 0.5 µM; with GST-BANP BEN, 2.3 ± 0.4 µM; with BANP BEN S313A it was 7.9 ± 1.1 µM. For the same molecule, the Kd with BANP BEN-DBD worked out at 3.1 ± 0.3 µM.
